Assay results taken from article PMC3168117 (Nature structural & molecular biology, 2011).

Biological target: the molecule itself
Experiment: SEC-MALS

B1: VopL W3-C (residues 115-484: three WH2 motifs and the VCD) (domain or fragment, Vibrio parahaemolyticus, UniProt Q87GE5 115-484, looked up)
chain: NLSKGAPKSSSNSLDSVNEDHSKLMEQIRQGVKLKSATKSLSADKSSADAHSKLMEELLTGGRKLKKVATSDIPAPPPLPSASTSKSPDSRNALLSEIAGFSKDRLRKTGSLETLNSSQSKDKESFEPTTHERLLSEDLFKQSPKLSEQELDELANNLADYLFQAADIDWHQVISEKTRGLTTEEMAKSEHRYVQAFCREILKYPDCYKSADVASPESPKSGGGSVIDVALKRLQTGRERLFTTTDEKGNRELKKGDAILESAINAARMAISTEEKNTILSNNVKSATFEVFCELPCMDGFAEQNGKTAFYALRAGFYSAFKNTDTAKQDITKFMKDNLQAGFSGYSYQGLTNRVAQLEAQLAALSAKLS
**Q.** For B1, which “stoichiometry N” value is on record?
**A.** 2
